This passage reports decrease in mesothelin shedding from RH29 cells (ELISA of shed mesothelin, OD value) results from US20200247901A1.

The target of the experiment is mesothelin on RH29 mesothelioma cells (V and M variant ratio 50:50) (human) (UniProt Q13421). The experiment is described as follows: cell-based or functional assay.
mesothelin on RH29 mesothelioma cells (V and M variant ratio 50:50) (human), sequence (Q13421 other isoform, or with tags, fused parts or gaps mutant limits assumed): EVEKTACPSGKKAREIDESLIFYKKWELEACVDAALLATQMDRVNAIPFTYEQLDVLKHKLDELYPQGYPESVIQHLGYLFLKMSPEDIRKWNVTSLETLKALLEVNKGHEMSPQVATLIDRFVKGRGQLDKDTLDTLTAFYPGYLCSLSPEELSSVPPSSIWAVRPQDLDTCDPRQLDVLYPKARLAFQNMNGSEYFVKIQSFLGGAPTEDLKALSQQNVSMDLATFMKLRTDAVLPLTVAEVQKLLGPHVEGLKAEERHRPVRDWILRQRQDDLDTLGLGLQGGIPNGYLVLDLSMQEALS

B1: 15B6 anti-mesothelin antibody (IgG2b) (antibody, V domains shown)
VH: EVQLQQSGPVLVKPGASVKISCKASGYSFTGYYMHWVRQSLVKRLEWIGRINPYTGVPSYKHNFKDKASLTVDKSSSTAYMELHSLTSEDSAVYYCARELGGYWGQGTTLTVSS
VL: QAVVTQESALTTSPGETVTLTCRSSTGAVTTGNYPNWVQEKPDHLFTGLIAGTNNRAPGVPARFSGSLIGDKAALTITGAQTEDEAIYFCALWFSSHWVFGGGTKLTVL
B1: the decrease in mesothelin shedding from RH29 cells (ELISA of shed mesothelin, OD value) worked out at 50%.
